Measured values: the supplement of paper PMC11316812
± gives the standard deviation of the averaged measurements.

Tests used:
MCF7 = test: percentage of EdU-negative (G0-arrested) nuclei per well, 72 h; higher = more G0 arrest; details: reference: sequence is the full UniProt precursor, the tested protein was the secreted form or ectodomain
hTERT-HMEC = test: as above; details: reference: sequence is the full UniProt precursor, the tested protein was the secreted form or ectodomain
[1] = protein concentration 0.00875 µM
[2] = protein concentration 0.0875 µM
[3] = protein concentration 0.01925 µM
[4] = protein concentration 0.1925 µM
[5] = protein concentration 0.0225 µM
[6] = protein concentration 0.03125 µM
[7] = protein concentration 0.3125 µM
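Further: secreted proteins added to cultured cells, EdU pulse at the end, nuclei found by Hoechst imaging, EdU status from nuclear versus surrounding ring intensity ratio, PBS as neutral control.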

With “MALTLFDTDEYRPPVWKSYLYQLQQEAPHPRRITCTCEVENRPKYYGREFHGMISREAADQLLIVAEGSYLIRESQRQPGTYTLALRFGSQTRNFRLYYDGKHFVGEKRFESIHDLVTDGLITLYIETKAAEYIAKMTINPIYEHVGYTTLNREPAYKKHMPVLKETHDERDSTGQDGVSEKRLTSLVRRATLKENEQIPKYEKIHNFKVHTFRGPHWCEYCANFMWGLIAQGVKCADCGLNVHKQCSKMVPNDCKPDLKHVKKVYSCDLTTLVKAHTTKRPMVVDMCIREIESRGLNSEGLYRVSGFSDLIEDVKMAFDRDGEKADISVNMYEDINIITGALKLYFRDLPIPLITYDAYPKFIESAKIMDPDEQLETLHEALKLLPPAHCETLRYLMAHLKRVTLHEKENLMNAENLGIVFGPTLMRSPELDAMAALNDIRYQRLVVELLIKNEDILF [B8ZZ96]” as the sequence, how does the “percentage of EdU-negative” value (MCF7; [1]) read?
Its value is 25.94 ± 0.25%.

What about the “percentage of EdU-negative” value (MCF7; [2]) of the same sequence?
Its value is 26.7 ± 0.53%.

What about the “percentage of EdU-negative” value (hTERT-HMEC; [1]) of the same sequence?
The value was 4.91 ± 0.4%.

What about the “percentage of EdU-negative” value (hTERT-HMEC; [2]) of the same sequence?
The value was 6.84 ± 1.4%.

Which results are given for “MALVRALVCCLLTAWHCRSGLGLPVAPAGGRNPPPAIGQFWHVTDLHLDPTYHITDDHTKVCASSKGANASNPGPFGDVLCDSPYQLILSAFDFIKNSGQEASFMIWTGDSPPHVPVPELSTDTVINVITNMTTTIQSLFPNLQVFPALGNHDYWPQDQLPVVTSKVYNAVANLWKPWLDEEAISTLRKGGFYSQKVTTNPNLRIISLNTNLYYGPNIMTLNKTDPANQFEWLESTLNNSQQNKEKVYIIAHVPVGYLPSSQNITAMREYYNEKLIDIFQKYSDVIAGQFYGHTHRDSIMVLSDKKGSPVNSLFVAPAVTPVKSVLEKQTNNPGIRLFQYDPRDYKLLDMLQYYLNLTEANLKGESIWKLEYILTQTYDIEDLQPESLYGLAKQFTILDSKQFIKYYNYFFVSYDSSVTCDKTCKAFQICAIMNLDNISYADCLKQLYIKHNY”?
percentage of EdU-negative (MCF7; [3]): 26.4 ± 2.1%; percentage of EdU-negative (MCF7; [4]): 28.3 ± 3.7%; percentage of EdU-negative (hTERT-HMEC; [3]): 4.69 ± 0.32%; percentage of EdU-negative (hTERT-HMEC; [4]): 15.5 ± 1.9%

“MALWRGSAYAGFLALAVGCVFLLEPELPGSALRSLWSSLCLGPAPAPPGPVSPEGRLAAAWDALIVRPVRRWRRVAVGVNACVDVVLSGVKLLQALGLSPGNGKDHSILHSRNDLEEAFIHFMGKGAAAERFFSDKETFHDIAQVASEFPGAQHYVGGNAALIGQKFAANSDLKVLLCGPVGPKLHELLDDNVFVPPESLQEVDEFHLILEYQAGEEWGQLKAPHANRFIFSHDLSNGAMNMLEVFVSSLEEFQPDLVVLSGLHMMEGQSKELQRKRLLEVVTSISDIPTGIPVHLELASMTNRELMSSIVHQQVFPAVTSLGLNEQELLFLTQSASGPHSSLSSWNGVPDVGMVSDILFWILKEHGRSKSRASDLTRIHFHTLVYHILATVDGHWANQLAAVAAGARVAGTQACATETIDTSRVSLRAPQEFMTSHSEAGSRIVLNPNKPVVEWHREGISFHFTPVLVCKDPIRTVGLGDAISAEGLFYSEVHPHY [Q9BRR6]” was tested. Which “percentage of EdU-negative” value (MCF7; [5]) did it give?
The value was 24.8 ± 1%.

And the “percentage of EdU-negative” value (MCF7; protein concentration 0.225 µM)?
The value was 24 ± 2.1%.

And the “percentage of EdU-negative” value (hTERT-HMEC; [5])?
Its value is 4.76 ± 0.58%.

And the “percentage of EdU-negative” value (hTERT-HMEC; protein concentration 0.225 µM)?
The value was 5.82 ± 0.78%.

How did the “percentage of EdU-negative” value (MCF7; [5]) turn out when “MAMRLILFFGALFGHIYCLETFVGDQVLEIVPSNEEQIKNLLQLEAQEHLQLDFWKSPTTPGETAHVRVPFVNVQAVKVFLESQGIAYSIMIEDVQVLLDKENEEMLFNRRRERSGNFNFGAYHTLEEISQEMDNLVAEHPGLVSKVNIGSSFENRPMNVLKFSTGGDKPAIWLDAGIHAREWVTQATALWTANKIVSDYGKDPSITSILDALDIFLLPVTNPDGYVFSQTKNRMWRKTRSKVSGSLCVGVDPNRNWDAGFGGPGASSNPCSDSYHGPSANSEVEVKSIVDFIKSHGKVKAFITLHSYSQLLMFPYGYKCTKLDDFDELSEVAQKAAQSLRSLHGTKYKVGPICSVIYQASGGSIDWSYDYGIKYSFAFELRDTGRYGFLLPARQILPTAEETWLGLKAIMEHVRDHPY” was run?
Its value is 25.6 ± 2.3%.

What about the “percentage of EdU-negative” value (MCF7; protein concentration 0.225 µM) of the same sequence?
Its value is 24.9 ± 0.71%.

What about the “percentage of EdU-negative” value (hTERT-HMEC; [5]) of the same sequence?
The value was 6 ± 1%.

What about the “percentage of EdU-negative” value (hTERT-HMEC; protein concentration 0.225 µM) of the same sequence?
Its value is 5.16 ± 0.28%.

Which “percentage of EdU-negative” value (MCF7; [6]) does the source give for “MANRGPAYGLSREVQQKIEKQYDADLEQILIQWITTQCRKDVGRPQPGRENFQNWLKDGTVLCELINALYPEGQAPVKKIQASTMAFKQMEQISQFLQAAERYGINTTDIFQTVDLWEGKNMACVQRTLMNLGGLAVARDDGLFSGDPNWFPKKSKENPRNFSDNQLQEGKNVIGLQMGTNRGASQAGMTGYGMPRQIL” here?
Its value is 25.9 ± 1.3%.

And the “percentage of EdU-negative” value (MCF7; [7])?
The value was 25.2 ± 2.8%.

What about the “percentage of EdU-negative” value (hTERT-HMEC; [6]) of the same sequence?
Its value is 6.1 ± 1.2%.

And the “percentage of EdU-negative” value (hTERT-HMEC; [7])?
Its value is 5.189 ± 0.039%.

Which results are given for “MAPAGCCCCCCFWGGAVAAAGAARRVLLLLLLGVLSAGLRPGALATEHYSPLSLLKQELQHRQQQEAPAGGGGCSPQSGDWGDQYSAECGESSFLNFHDSDCEPKGSSPCDSLLSLNTEKILSQAKSIAEQKRFPFATDNDSTNEELAIAYVLIGSGLYDEAIRHFSTMLQEEPDLVSAIYGRGIAYGKKGLHDIKNAELALFELSRVITLEPDRPEVFEQRAEILSPLGRINEAVNDLTKAIQLQPSARLYRHRGTLYFISEDYATAHEDFQQSLELNKNQPIAMLYKGLTFFHRGLLKEAIESFKEALKQKVDFIDAYKSLGQAYRELGNFEAATESFQKALLLNQNHVQTLQLRGMMLYHHGSLQEALKNFKRCLQLEPYNEVCQYMKGLSHVAMGQFYEGIKAQTKVMLNDPLPGQKASPEYLKVKYLREYSRYLHAHLDTPLTEYNIDVDLPGSFKDHWAKNLPFLIEDYEEQPGLQPHIKDVLHQNFESYKPEVQELICVADRLGSLMQYETPGFLPNKRIHRAMGLAALEVMQAVQRTWTNSKVRMNGKTRLMQWRDMFDIAVKWRRIADPDQPVLWLDQMPARSLSRGFNNHINLIRGQVINMRYLEYFEKILHFIKDRILVYHGANNPKGLLEVREALEKVHKVEDLLPIMKQFNTKTKDGFTVNTKVPSLKDQGKEYDGFTITITGDKVGNILFSVETQTTEERTQLYHAEIDALYKDLTAKGKVLILSSEFGEADAVCNLILSLVYYFYNLMPLSRGSSVIAYSVIVGALMASGKEVAGKIPKGKLVDFEAMTAPGSEAFSKVAKSWMNLKSISPSYKTLPSVSETFPTLRSMIEVLNTDSSPRCLKKL [Q8NBP0]”?
percentage of EdU-negative (MCF7; protein concentration 0.012 µM): 25.9 ± 1.1%; percentage of EdU-negative (MCF7; protein concentration 0.12 µM): 27.7 ± 0.85%; percentage of EdU-negative (hTERT-HMEC; protein concentration 0.012 µM): 5.436 ± 0.048%; percentage of EdU-negative (hTERT-HMEC; protein concentration 0.12 µM): 11 ± 2.8%

With “MAPAGVSLRATILCLLAWAGLAAGDRVYIHPFHLVIHNESTCEQLAKANAGKPKDPTFIPAPIQAKTSPVDEKALQDQLVLVAAKLDTEDKLRAAMVGMLANFLGFRIYGMHSELWGVVHGATVLSPTAVFGTLASLYLGALDHTADRLQAILGVPWKDKNCTSRLDAHKVLSALQAVQGLLVAQGRADSQAQLLLSTVVGVFTAPGLHLKQPFVQGLALYTPVVLPRSLDFTELDVAAEKIDRFMQAVTGWKTGCSLMGASVDSTLAFNTYVHFQGKMKGFSLLAEPQEFWVDNSTSVSVPMLSGMGTFQHWSDIQDNFSVTQVPFTESACLLLIQPHYASDLDKVEGLTFQQNSLNWMKKLSPRTIHLTMPQLVLQGSYDLQDLLAQAELPAILHTELNLQKLSNDRIRVGEVLNSIFFELEADEREPTESTQQLNKPEVLEVTLNRPFLFAVYDQSATALHFLGRVANPLSTA” as the sequence, how does the “percentage of EdU-negative” value (MCF7; [6]) read?
Its value is 23.9 ± 1.3%.

What about the “percentage of EdU-negative” value (MCF7; [7]) of the same sequence?
Its value is 26.5 ± 1.4%.

And the “percentage of EdU-negative” value (hTERT-HMEC; [6])?
The value was 5.56 ± 0.51%.

What about the “percentage of EdU-negative” value (hTERT-HMEC; [7]) of the same sequence?
Its value is 5.41 ± 0.61%.
